Reference: publication PMC7940618, “Specific inhibition of the Survivin–CRM1 interaction by peptide-modified molecular tweezers” (Nature Communications, 2021)
Peptide text beside a SMILES is read from it.

What was measured:
Format in all cases: binding
[1] = biological target: T1, GST-Survivin120–CRM1 interaction (Homo sapiens, UniProt O15392); assay: Pull-down with GST-Survivin120 wildtype bait, CRM1 and RanQ69L
T1 construct: the only published NMR structure originated from a truncated Survivin (aa 1-120) with improved solubility; made in house; host or cells: Escherichia coli soluBL21
T1 sequence (O15392 1-120): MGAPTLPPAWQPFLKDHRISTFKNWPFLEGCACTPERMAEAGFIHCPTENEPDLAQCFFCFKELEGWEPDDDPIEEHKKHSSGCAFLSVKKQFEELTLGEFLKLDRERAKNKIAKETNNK
Method: (§1) Next, we investigated whether tweezer inhibition of the export complex assembly is compromised upon lysine mutations near the NES. Therefore, pull-down experiments were performed with recombinant GST-tagged Survivin120 wildtype and K90/103T as bait proteins, tweezers, recombinant CRM1 and RanQ69L (Fig. 7g). Controls lacking the Survivin baits were included, as well as isolated peptides without tweezer (Fig. 7h). […] However, for the double lysine mutant GST-Survivin120-K90/103T even the tweezer conjugates lost most of their inhibitory power toward the essential Survivin–CRM1 interaction.
(§2) All pull-down assays were performed at room temperature in pull-down buffer (PBS, pH 7.4, 1 mM DTT, 0.02 Triton X-100). GST fusion proteins were immobilized on 50 μL GSH-coated Sepharose 4B beads from GE Healthcare. The beads were prior equilibrated and blocked with 500 μL pull-down blocking buffer (PBS, pH 7.4, 1 (w/v) BSA, 1 mM DTT, 0.02 (v/v) Triton X-100) for 1 h to prevent unspecific binding.
(§3) For analysis of the effective inhibitory tweezer concentration, 200 μg 293T lysate with overexpressed Survivin142-HA was preincubated without ligand or with different concentrations (10 nM to 200 μM) of unmodified tweezer TW, TW-ELTL, TW-ELTLGEFL, or TW-LFEEGLLT for 1 h and then mixed with 35 μg GST-CRM1, 55 μg RanQ69L, and 2 mM dGTP. GSH-beads were incubated with this protein mixture for 2 h under rotation. For analysis of tweezer specificity, 40 μg GST-Survivin120 or GST-Survivin120-K90/103T point mutant was pre-bound to equilibrated GSH-beads in 500 μL pull-down buffer, containing additionally either no ligand or 50 μM unmodified tweezer TW, TW-ELTL, TW-ELTLGEFL, or peptides ELTL and ELTLGEFL, for 1 h under rotation. After washing and blocking, GSH-beads were incubated with a protein mixture consisting of 2 mM dGTP, 50 μg CRM1, and 50 μg RanQ69L for 2 h under rotation.
(§4) Samples of input and beads taken during pull-down experiments were ran on 12.5 SDS gels and transferred onto 0.2 µM PVDF membranes (Amersham Hybond P 0.2) using a PerfectBlue™ tank electro blotter (Peqlab) at 350 mA for 150 min. Membranes were blocked for 1 h using 5% milk powder in TBS buffer containing 0.1% Tween-20. Next, membranes were incubated in primary antibodies against HA (anti-HA, mouse monoclonal, BioLegend, Covance MMS-101R, 1:1,000), GST (anti-GST, mouse monoclonal, Santa Cruz Biotechnology Inc., sc-57753, 1:1000) or CRM1 (anti-CRM1, rabbit polyclonal, Novus Biologicals Ltd., NB100-79802, 1:10,000) overnight at 4 °C. Secondary horseradish peroxidase (HRP)-conjugated antibody (anti-mouse IgG-HRP, sheep, GE Healthcare, NXA931 or anti-rabbit IgG-HRP, donkey, GE Healthcare, NA934) was then added (1:10,000) for 1 h at room temperature. Chemiluminescence was detected and imaged using the Pierce ECL Plus Western Blotting Substrate kit (Thermo Fisher Scientific) and Chemidoc system (Bio-Rad) or film processor Cawomat 2000 IR (CAWO). Western blots were analyzed by densitometric analysis with ImageJ version 1.52p (U.S. National Institutes of Health), measuring the mean gray intensity of protein bands. Uncropped and unprocessed scans of western blots are deposited in the Source Data file.

[2] = biological target: T2, GST-Survivin120-K90/103T–CRM1 interaction (Homo sapiens, UniProt O15392, K103T/K90T); assay: Pull-down with GST-Survivin120-K90/103T bait, CRM1 and RanQ69L
T2 construct: the only published NMR structure originated from a truncated Survivin (aa 1-120) with improved solubility; made in house; host or cells: Escherichia coli soluBL21
T2 sequence (O15392 1-120 K90T/K103T): as the sequence (O15392 1-120) above, with K90T, K103T counted along it
Method: as §1, §2, §3, §4

[3] = biological target: T3, Survivin120 K90/103T (Homo sapiens, UniProt O15392, K103T/K90T); assay: ITC titration of tweezers with Survivin120 K90/103T mutant
T3 construct: the only published NMR structure originated from a truncated Survivin (aa 1-120) with improved solubility; GST with PreScission site (N); made in house; host or cells: Escherichia coli soluBL21
T3 sequence (O15392 1-120 K90T/K103T): as the sequence (O15392 1-120) above, with K90T, K103T counted along it
Text: If the tweezer-based inhibitors indeed bind to lysines/arginines flanking the NES (K90, K91, K103, R106), their mutation to, e.g., threonine, should abolish the observed effects. For this reason, we generated double and triple Survivin120 mutants lacking these putative tweezer anchor points. Unfortunately, most double mutants and especially the triple mutants were unfolded as evidenced by 1D ^1H NMR (SI6); finally, the correctly folded double threonine mutant Survivin120 K90/103T was chosen for further investigation. […] Next, binding of FAM-labeled tweezers (SI3) to either Survivin120 wildtype or the K90/103T mutant was studied by fluorescence anisotropy (Fig. 7d–f). […] We conclude that lysines 90 and 103 are indeed essential for efficient tweezer binding.
(§5) ITC was performed with a MicroCal iTC200 from Malvern Panalytical in PBS, pH 7.4 at 25 °C with molecular tweezers in the cell and Survivin120 in the titration syringe. The protein was dialyzed overnight at 4 °C against the PBS buffer. Ligands were dissolved in the respective dialysis buffer. Then, 300 µM TW were titrated with 300 µM Survivin120 WT or 321 µM Survivin120 K90/103T. Then, 100 µM TW-ELTL, TW-ELTLGEFL, or TW-LFEEGLLT was titrated with 1.2 mM Survivin120 WT or 2.5 mM Survivin120 K90/103T. For reverse titrations, either 33.3 or 34.4 µM Survivin120 in the cell was titrated with 5 mM TW or TW-ELTL in the syringe, respectively. All titrations were performed in PBS, pH 7.4 at 25 °C. Then, 1.5 μL injections were used with 120 s spacing time between injections. The injection rate was set to 0.5 µL/s and the reference power was 5 µcal/s. ITC thermograms were fitted to a one set of sites model with the software Origin (v7.0552) provided with the instrument. Heat of dilution was subtracted as constant from each data point.
(§6) ITC thermograms were fitted to a one set of sites model with the software Origin provided with the instrument. Heat of dilution was subtracted as constant from each data point. From three independent experiments (n = 3), one representative example was depicted, and thermodynamic data were derived thereof. For pull-down experiments, only the representative quantification of the depicted western blot is shown. […] Fluorescence anisotropy graphs were generated with GraphPad Prism 5.0. Depicted error bars represent the standard deviation of three independent titrations.

[4] = biological target: T4, Survivin120 (Homo sapiens, UniProt O15392); assay: ITC titration of tweezers with Survivin120 wildtype
T4 construct: the only published NMR structure originated from a truncated Survivin (aa 1-120) with improved solubility; GST with PreScission site (N); made in house; host or cells: Escherichia coli soluBL21
T4 sequence (O15392 1-120): as the sequence (O15392 1-120) above
Method: The interaction between the tweezers and Survivin was studied by isothermal titration calorimetry (ITC) and NMR spectroscopy. So far, the only published NMR structure originated from a truncated Survivin (aa 1-120) with improved solubility. […] Since the truncated construct still contains all relevant parts of the protein and gives excellent NMR spectra (SI5), we chose it for all our in vitro experiments and denote it as Survivin120 in the following results.
as §5, §6

[5] = biological target: T5, Survivin–CRM1 complex (Homo sapiens, UniProt O15392); assay: Pull-down with 293T lysate (Survivin142-HA), GST-CRM1 bait, RanQ69L, dGTP
T5 construct: expressed in transfected cells; host or cells: 293T cells (Survivin142-HA); E. coli soluBL21 (GST-CRM1, RanQ69L)
T5 sequence (O15392 whole entry, one chain of several): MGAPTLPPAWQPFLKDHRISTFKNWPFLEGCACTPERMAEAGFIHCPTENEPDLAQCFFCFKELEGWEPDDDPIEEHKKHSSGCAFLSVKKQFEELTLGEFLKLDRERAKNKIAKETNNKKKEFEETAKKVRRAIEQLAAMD
Method: We next investigated whether tweezers inhibit the Survivin–CRM1 complex formation in vitro. The effects of the unmodified and peptide-linked tweezers were analyzed via pull-down experiments with 293T lysates containing overexpressed HA-tagged Survivin142, recombinant GST-CRM1 as bait protein, and tweezers (Fig. 6). The parent and ELTL-linked tweezer required 10–50 µM to disrupt the Survivin–CRM1 complex. […] In order to provide experimental evidence for the sequence selectivity of the TW-ELTLGEFL ligand, a scrambled analog was synthesized and clicked to the tweezer, resulting in the hybrid molecule TW-LFEEGLLT (SI1, SI2, and SI10). […] Instead, the slight chemical shift perturbations might be due to the spatial proximity of the peptide moiety to the anchoring residue. All those results strongly indicate that the additional binding energy from the NES interface was lost due to scrambling and thus point toward specific recognition as the reason for increased selectivity and interference with the Survivin–CRM1 interaction. Of note, very high tweezer concentrations (100–200 µM) also weakened GST-CRM1 binding to GSH-Sepharose beads, most likely by low-affinity binding to the GST protein.
as §2
For analysis of the effective inhibitory tweezer concentration, 200 μg 293T lysate with overexpressed Survivin142-HA was preincubated without ligand or with different concentrations (10 nM to 200 μM) of unmodified tweezer TW, TW-ELTL, TW-ELTLGEFL, or TW-LFEEGLLT for 1 h and then mixed with 35 μg GST-CRM1, 55 μg RanQ69L, and 2 mM dGTP. GSH-beads were incubated with this protein mixture for 2 h under rotation. […]
Samples of input and beads taken during pull-down experiments were ran on 12.5 SDS gels and transferred onto 0.2 µM PVDF membranes (Amersham Hybond P 0.2) using a PerfectBlue™ tank electro blotter (Peqlab) at 350 mA for 150 min. […] Chemiluminescence was detected and imaged using the Pierce ECL Plus Western Blotting Substrate kit (Thermo Fisher Scientific) and Chemidoc system (Bio-Rad) or film processor Cawomat 2000 IR (CAWO). Western blots were analyzed by densitometric analysis with ImageJ version 1.52p (U.S. National Institutes of Health), measuring the mean gray intensity of protein bands. […]

[6] = CRM1 band, samples 22-28 (K90/103T)

## ELTLGEFL peptide: isolated peptide ELTLGEFL without tweezer, pull-down control
[1]; CRM1 band, samples 15-21 (WT)
  CRM1: Peak area determined with ImageJ: 27360.9
  CRM1 intensity_normalised on GST-Surv intensity (samples 1-14): 0.3991
[1]; CRM1 band, samples 15-21 (WT), sample 16 subtracted
  CRM1: Control w/o GST-Survivin subtracted (sample 16 or 23): 22503.2
[1]; GST-Surv bait band, samples 1-7 (WT according to the summary in r39-r41)
  GST-Surv: Peak area determined with ImageJ: 57214.6
[1]; GST-Surv bait band, samples 1-7 (WT), sample 2 subtracted
  GST-Surv: Control w/o GST-Survivin subtracted (sample 2 or 9): 56379.3
[1]; WT, w/o tweezer = 100, replicates I and II
  Normalised CRM1 intensity, summary of replicates I and II: 112.936%
[1]; samples 15-21 (WT), fraction of sample 15 (w/o Tweezer)
  CRM1 intensity_normalised on GST-Surv intensity (samples 1-14) and CRM1 intensity w/o incubation (sample 15 or 22): 1.129
[1]; samples 15-21 (WT), w/o Tweezer = 100
  CRM1 intensity_normalised on GST-Surv intensity (samples 1-14) and CRM1 intensity w/o incubation (sample 15 or 22): 112.936%
[2]; [6]
  CRM1: Peak area determined with ImageJ: 38827.8
  CRM1 intensity_normalised on GST-Surv intensity (samples 1-14): 0.485
[2]; CRM1 band, samples 22-28 (K90/103T), sample 23 subtracted
  CRM1: Control w/o GST-Survivin subtracted (sample 16 or 23): 34118.6
[2]; GST-Surv bait band, samples 8-14 (K90/103T according to the summary in r39-r41)
  GST-Surv: Peak area determined with ImageJ: 72953.9
[2]; GST-Surv bait band, samples 8-14 (K90/103T), sample 9 subtracted
  GST-Surv: Control w/o GST-Survivin subtracted (sample 2 or 9): 70354.7
[2]; K90/103T, w/o tweezer = 100, replicates I and II
  Normalised CRM1 intensity, summary of replicates I and II: 76.5436%
[2]; samples 22-28 (K90/103T), fraction of sample 22 (w/o tweezer)
  CRM1 intensity_normalised on GST-Surv intensity (samples 1-14) and CRM1 intensity w/o incubation (sample 15 or 22): 0.7654
[2]; samples 22-28 (K90/103T), w/o tweezer = 100
  CRM1 intensity_normalised on GST-Surv intensity (samples 1-14) and CRM1 intensity w/o incubation (sample 15 or 22): 76.5436%

## CC(C)C[C@H](NC(=O)Cn1cc(CCOP(=O)(O)Oc2c3c(c(OP(=O)(O)O)c4c2C2CC4c4cc5c(cc42)C2CC5c4ccccc42)C2CC3c3cc4c(cc32)C2CC4c3ccccc32)nn1)C(=O)N[C@@H](Cc1ccccc1)C(=O)N[C@@H](CCC(=O)O)C(=O)N[C@@H](CCC(=O)O)C(=O)NCC(=O)N[C@@H](CC(C)C)C(=O)N[C@@H](CC(C)C)C(=O)N[C@H](C(=O)O)[C@@H](C)O [TW-LFEEGLLT] (HELM PEPTIDE1{[O=C(Cn1cc(CCOP(=O)(O)Oc2c3c(c(OP(=O)(O)O)c4c2C2CC4c4cc5c(cc42)C2CC5c4ccccc42)C2CC3c3cc4c(cc32)C2CC4c3ccccc32)nn1)[*:2]].L.F.E.E.G.L.L.T}$$$$V2.0)
[3]
  Kd: 55 ± 24 µM
[3]; ITC, Survivin120 K90/103T
  ΔH: -1.4 kcal
[4]; ITC KD ratio
  lower affinity toward wildtype protein compared with TW-ELTLGEFL: ~ three
[4]; ITC, Survivin120 WT
  -TΔS: -4.7 kcal
  ΔG: -5.7 kcal
  ΔH: -1.0 kcal
[4]; ITC, Survivin120 WT, PBS pH 7.4, 25 °C, one set of sites model, mean ± SEM of fit
  Kd: 68 ± 22 µM
[5]; pull-down analyses
  effectiveness compared with TW-ELTLGEFL: about one order of magnitude less effective
[5]; pull-down, concentrations between 1 and 50 µM (SI18)
  concentration inhibiting the Survivin/CRM1 interaction efficiently: > 50 µM
